Consider 1 substance from patent publication US20130115213A1.

Experiment [1] concerns the target human CD3 (TCR/CD3 complex) on the cell surface (human) (UniProt P07766). The experiment can be described thus: cell surface retention on CD3+ Jurkat cells at 37 C; ln2/koff.
Experiment [2] shares this target. In words: flow cytometry on CD3+ Jurkat cells, Lineweaver-Burk fit.
The target is the same in experiment [3]. In words: cell-based or functional assay.
For experiment [4] the target is unchanged. The experiment can be described thus: cell surface retention on CD3+ Jurkat cells at 37 C, flow cytometry, one-phase exponential decay fit.
Experiment [5] shares this target. The experiment can be described thus: cell surface retention on CD3+ Jurkat cells at 37 C; reference scFv10.

UniProt P07766, sequence (P07766 23-207, one chain of several): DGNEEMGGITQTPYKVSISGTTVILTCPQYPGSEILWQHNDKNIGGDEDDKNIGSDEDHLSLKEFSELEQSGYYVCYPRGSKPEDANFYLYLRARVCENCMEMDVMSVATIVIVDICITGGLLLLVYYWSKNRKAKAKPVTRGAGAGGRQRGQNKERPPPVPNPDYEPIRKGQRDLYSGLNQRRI

For “mAb OKT3 (Orthoclone OKT3, Cilag) (antibody)”, the t1/2 in experiment [1] turned out to be 2.59 min. The dissociation constant Kd in experiment [2] was 2.06 nM. Moreover, the CD3 modulation (fraction of TCR/CD3 complexes on the surface of T cells that is lost after antibody treatment), PBMC, 24 h in experiment [3] was above 90%. This substance had a koff in experiment [4] of 0.00447 s⁻¹. Besides, in experiment [5], the fold longer t1/2 against scFv10 was 2.5 fold.

In general, Kd refers to the free concentration of one partner at which half of the binding sites on the other are occupied at equilibrium, for simple one-to-one binding. The low end stands for a tighter complex, the high end for a looser complex. For orientation: koff means the first-order rate constant of dissociation. Lower therefore signals a long-lived complex.
